This sample holds only a part of the variants without activity.
What was measured:
biotinyl-Leu-oxazolone = experiment: self-aminoacylation, catalytic enhancement (BLO) (fold over background); higher = more active; k-Seq, kA / k0A0; sequences stand for … in GGGAAUGGAUCCACAUCUACGAAUUC…UUCACUGCAGACUUGACGAAGCUG
Summary of the method: (§1)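 Mutagenized RNA pools with a 21-nt variable region (0.43 μM) were reacted with each biotinyl-aminoacyl-oxazolone at 2–1250 μM for 90 minutes at room temperature, in 50 μL HEPES/NaCl/KCl/MgCl2/CaCl2 buffer containing 5% acetonitrile at pH 6.9–7.0. RNA captured on streptavidin was quantified by triplicate qPCR and by Illumina sequencing. The fraction reacted for each sequence was fit to a pseudo-first-order model with bootstrapping, and catalytic enhancement is the median kA divided by the uncatalyzed rate, taken as the low-activity peak of a bimodal Gaussian fit.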

biotinyl-Phe-oxazolone = experiment: self-aminoacylation, catalytic enhancement (BFO) (fold over background); higher = more active; k-Seq, kA / k0A0; sequences stand for … in GGGAAUGGAUCCACAUCUACGAAUUC…UUCACUGCAGACUUGACGAAGCUG
Summary of the method: as §1

biotinyl-Ile-oxazolone = experiment: self-aminoacylation, catalytic enhancement (BIO) (fold over background); higher = more active; k-Seq, kA / k0A0; sequences stand for … in GGGAAUGGAUCCACAUCUACGAAUUC…UUCACUGCAGACUUGACGAAGCUG
Summary of the method: as §1

biotinyl-Val-oxazolone = experiment: self-aminoacylation, catalytic enhancement (BVO) (fold over background); higher = more active; k-Seq, kA / k0A0; sequences stand for … in GGGAAUGGAUCCACAUCUACGAAUUC…UUCACUGCAGACUUGACGAAGCUG
Summary of the method: as §1

biotinyl-Met-oxazolone = experiment: self-aminoacylation, catalytic enhancement (BMO) (fold over background); higher = more active; k-Seq, kA / k0A0; sequences stand for … in GGGAAUGGAUCCACAUCUACGAAUUC…UUCACUGCAGACUUGACGAAGCUG
Summary of the method: as §1

biotinyl-Trp-oxazolone = experiment: self-aminoacylation, catalytic enhancement (BWO) (fold over background); higher = more active; k-Seq, kA / k0A0; sequences stand for … in GGGAAUGGAUCCACAUCUACGAAUUC…UUCACUGCAGACUUGACGAAGCUG
Summary of the method: as §1

| Sequence | self-aminoacylation (biotinyl-Leu-oxazolone) | self-aminoacylation (biotinyl-Phe-oxazolone) | self-aminoacylation (biotinyl-Ile-oxazolone) | self-aminoacylation (biotinyl-Val-oxazolone) | self-aminoacylation (biotinyl-Met-oxazolone) | self-aminoacylation (biotinyl-Trp-oxazolone) |
| --- | --- | --- | --- | --- | --- | --- |
| AAUACCCUGGUCAUCGAGUGU [Fam2.1 aminoacylation ribozyme variant] | 7.95 | 20.5 | 3.84 | 4.56 | 8.79 | 8.44 |
| AAUACCCUGGUCAUCGCGUGA [Fam2.1 aminoacylation ribozyme variant] | 15.7 | 118 | 7.23 | 8.98 | 16.9 | 16.1 |
| AAUACCCUGGUCAUCGUGUGA [Fam2.1 aminoacylation ribozyme variant] | 2.39 | 11.4 | 1.51 | 1.35 | 2.55 | 2.98 |
| AAUACCCUGGUCAUCUAGUGA [Fam2.1 aminoacylation ribozyme variant] | 7.36 | 28.3 | 3.19 | 3.66 | 6.98 | 8.94 |
| AAUACCCUGGUCAUGGAGUGA [Fam2.1 aminoacylation ribozyme variant] | 3.47 | 1.9 | 2.21 | 1.86 | 2.43 | 3.45 |
| AAUACCCUGGUCUUCGAGUGA [Fam2.1 aminoacylation ribozyme variant] | 3.26 | 12.6 | 2.2 | 2.32 | 3.34 | 4.72 |
| AAUACCUUGGUCAUCGAGUGA [Fam2.1 aminoacylation ribozyme variant] | 6.66 | 7.36 | 4.23 | 3.99 | 6.2 | 7.87 |
| AAUACGCUGGUCAUCGAGUGA [Fam2.1 aminoacylation ribozyme variant] | 5 | 15.1 | 3.67 | 3.88 | 4.31 | 5.67 |
| AAUACUCUGGUCAUCGAGUGA [Fam2.1 aminoacylation ribozyme variant] | 3.72 | 8.91 | 2.59 | 2.77 | 3.85 | 5.7 |
| AAUAGCCUGGUCAUCGAGUGA [Fam2.1 aminoacylation ribozyme variant] | 4.95 | 18.6 | 4.15 | 4.05 | 4.77 | 7.5 |
| AAUCACCGAGGUCAUCGGGUG [Fam2.2 aminoacylation ribozyme variant] | 6.88 | 67.7 | 5.03 | 5.33 | 5.14 | 7.72 |
| AAUCACCUAGGUCACCGGGUG [Fam2.2 aminoacylation ribozyme variant] | 5.27 | 21.8 | 4.26 | 4.04 | 4.08 | 6.06 |
| AAUCACCUAGGUCAUCGGAUG [Fam2.2 aminoacylation ribozyme variant] | 0.798 | 0.476 | 1.06 | 1.19 | 0.909 | 1.08 |
| AAUCACCUAGGUCAUGGGGUG [Fam2.2 aminoacylation ribozyme variant] | 4.25 | 19.4 | 3.44 | 3.71 | 3.26 | 4.91 |
| AAUCACCUAGGUUAUCGGGUG [Fam2.2 aminoacylation ribozyme variant] | 4.57 | 38.4 | 3.83 | 4.23 | 4.32 | 7.07 |
| AAUCACCUAGUUCAUCGGGUG [Fam2.2 aminoacylation ribozyme variant] | 2.59 | 16.3 | 3.01 | 3.16 | 3.33 | 3.72 |
| AAUCACCUUGGUCAUCGGGUG [Fam2.2 aminoacylation ribozyme variant] | 6.76 | 43.2 | 4.22 | 5.18 | 6.06 | 8.74 |
| AAUCACGUAGGUCAUCGGGUG [Fam2.2 aminoacylation ribozyme variant] | 4.02 | 30.4 | 3.09 | 3.77 | 3.19 | 4.86 |
| AAUCAGCUAGGUCAUCGGGUG [Fam2.2 aminoacylation ribozyme variant] | 5.01 | 37.5 | 5.2 | 6.64 | 4.97 | 7.54 |
| AAUUUGGCUAAUAGUCGCAAG [Fam3.1 aminoacylation ribozyme variant] | 1.96 | 2.14 | 1.79 | 1.7 | 1.82 | 1.99 |
| AAUUUUGCCAAUAGUCGCAAG [Fam3.1 aminoacylation ribozyme variant] | 1.8 | 2.34 | 1.78 | 1.69 | 2.31 | 1.8 |
| AAUUUUGCUAAUAGCCGCAAG [Fam3.1 aminoacylation ribozyme variant] | 1.49 | 1.7 | 1.74 | 1.44 | 1.33 | 1.31 |

| Sequence | self-aminoacylation (biotinyl-Leu-oxazolone) | self-aminoacylation (biotinyl-Phe-oxazolone) | self-aminoacylation (biotinyl-Ile-oxazolone) | self-aminoacylation (biotinyl-Val-oxazolone) | self-aminoacylation (biotinyl-Met-oxazolone) | self-aminoacylation (biotinyl-Trp-oxazolone) |
| --- | --- | --- | --- | --- | --- | --- |
| AAUUUUGCUAAUAGUCGAAAG [Fam3.1 aminoacylation ribozyme variant] | 1.2 | 3.69 | 1.56 | 0.991 | 1.16 | 2.11 |
| AAUUUUGCUAAUAGUGGCAAG [Fam3.1 aminoacylation ribozyme variant] | 0.633 | 0.836 | 0.771 | 0.632 | 0.798 | 0.652 |
| AAUUUUGCUAAUAGUUGCAAG [Fam3.1 aminoacylation ribozyme variant] | 1.63 | 2.06 | 1.73 | 1.53 | 1.54 | 1.75 |
| AAUUUUGCUAAUAUUCGCAAG [Fam3.1 aminoacylation ribozyme variant] | 1.57 | 1.5 | 1.92 | 1.5 | 1.55 | 2.15 |
| AAUUUUGCUACUAGUCGCAAG [Fam3.1 aminoacylation ribozyme variant] | 1.54 | 2.25 | 1.87 | 1.74 | 1.53 | 2.5 |
| AAUUUUGCUCAUAGUCGCAAG [Fam3.1 aminoacylation ribozyme variant] | 1.98 | 3.17 | 1.85 | 1.57 | 1.82 | 1.69 |
| ACAACCCUGGUCAUCGAGUGA [Fam2.1 aminoacylation ribozyme variant] | 12.2 | 17.4 | 6.16 | 5.2 | 11.4 | 12.5 |
| ACACAAUUCAAGCAAUCGGUC [Fam1B.1 aminoacylation ribozyme variant] | 1.21 | 1.95 | 1.44 | 1.18 | 1.21 | 1.67 |
| ACACACUCCAAGCAAUCGGUC [Fam1B.1 aminoacylation ribozyme variant] | 0.864 | 1.92 | 0.959 | 0.924 | 0.768 | 0.999 |
| ACACACUUCAAGCAAUCAGUC [Fam1B.1 aminoacylation ribozyme variant] | 0.999 | 9.33 | 1.12 | 1.11 | 0.988 | 4.18 |
| ACACACUUCAAGCAAUCGGUA [Fam1B.1 aminoacylation ribozyme variant] | 1.84 | 2 | 1.73 | 1.55 | 1.66 | 2.19 |
| ACACACUUCAAGCUAUCGGUC [Fam1B.1 aminoacylation ribozyme variant] | 1.1 | 1.15 | 1.33 | 1.2 | 1.03 | 0.982 |
| ACACACUUGAAGCAAUCGGUC [Fam1B.1 aminoacylation ribozyme variant] | 0.919 | 1.25 | 1 | 1.23 | 0.88 | 1.17 |
| ACACACUUUAAGCAAUCGGUC [Fam1B.1 aminoacylation ribozyme variant] | 0.948 | 1.34 | 1.06 | 0.949 | 0.832 | 1.03 |
| ACGUAUGCUAAUAGUCGCAAG [Fam3.1 aminoacylation ribozyme variant] | 1.72 | 1.96 | 1.61 | 1.43 | 1.35 | 1.29 |
| ACGUUCGCUAAUAGUCGCAAG [Fam3.1 aminoacylation ribozyme variant] | 1.96 | 1.62 | 1.84 | 1.91 | 1.24 | 2.21 |
| ACGUUUGCUAAUAGACGCAAG [Fam3.1 aminoacylation ribozyme variant] | 0.849 | 0.853 | 1.3 | 1.12 | 0.935 | 1.11 |
| ACGUUUGCUAAUAGUCGCAAU [Fam3.1 aminoacylation ribozyme variant] | 1.51 | 2.06 | 1.66 | 1.33 | 1.45 | 1.53 |
| ACGUUUGCUAAUAGUCGCACG [Fam3.1 aminoacylation ribozyme variant] | 2.26 | 3.42 | 2.43 | 2.05 | 2.53 | 2.13 |
| ACGUUUGCUAAUAGUCGUAAG [Fam3.1 aminoacylation ribozyme variant] | 1.04 | 15.7 | 1.14 | 1.1 | 1.27 | 4.64 |
| ACGUUUGCUACUAGUCGCAAG [Fam3.1 aminoacylation ribozyme variant] | 1.7 | 2.4 | 1.76 | 1.47 | 2.16 | 1.31 |
